OD450 data for 1 molecule are collected here from US20230295276A1.

In assay [1] the target is lysate of porcine pseudorabies virus. In words: ELISA Test 1, coated viral lysate, antibody 1:4000, Group 1.
Assay [2] addresses lysate of porcine coronavirus. The description is as above.
In assay [3] the target is lysate of porcine coronavirus. Nature of the assay: ELISA Test 2, coated viral lysate, antibody 1:4000, secondary antibody 1:2000. For orientation: ELISA stands for enzyme-linked immunosorbent assay.
The target of assay [4] is lysate of porcine pseudorabies virus. In words: ELISA Test 1, coated viral lysate, antibody 1:4000, Group 2.
Assay [5] addresses lysate of porcine coronavirus. The assay is described as above.

B1: anti-PRRSV antibody 572 (antibody, V domains shown)
VH: EVQLQQSGPELVKPGASVKISCKASGFSFTGYYMHWVKQSHVKSLEWIGRIYPYTDSTIYNQNFKDKAGLTVDKSSSTAYMELHSLTSEDSAVYYCARDNGYADYAMDYWGQGTSVTVSS
VL: DIVMTQSPSSLSAFLGDSITITCHASQNIHVWLSWYQQKPGNIPKLLIYKASNLHTGVPSRFSGSGSGTGFTLTISSLQPEDIGTYYCQQGQSYPLTFGAGTKLELK
Regarding B1, the OD450 in assay [1] was found to be 0.091 OD450; in assay [2] it was 0.322 OD450; in assay [3], 0.782 OD450; in assay [4], 0.1 OD450; in assay [5], 0.312 OD450.
